Reference: the DeepSol protein solubility set

Assay: soluble on expression in E. coli; label from the status in PepcDB or PDB records

Row | Sequence | soluble on expression in E. coli
1 | MNKLTIIVTYYNAEEYITGCLESIKQQRTQDFNLIIVNDGSTDQSKKLMDEAIKDYDKNIRFIDLDENSGHAHARNIALEEVETPYFMFLDADDELASYAITFYLEKFNNTDGLIAPIHSFTTQRPQFVDLDRVRVEYFNAKENINSFLRKQSACNIIFRTAIVRAHHIRFNENLNTYVDWSFVLEYMKYVNKFVRIFNFPFYFRGEVYDPFETLTLSEQNFDILFKDYVNSFYDAIKRATNPKVREFIVTKMGNKIANEFEPTRYDINERYQTHKDTLVELSKFLHVHLVKNQKLINKIETILLMNNETDKAFKVNQFRKTLRHVKNIVLRRKNKERSLYDLTDKEDNVKPKTIVFESFGGKNYSDSPKYIYEYMQKYYPNYRYIWSFKNPDKNVVPGSAEKVKRNSAEYYQAYSEASHWVSNARTPLYLNKKENQTYIQTWHGTPLKRLANDMKVVRMPGTTTPKYKRNFNRETSRWDYLISPNRYSTEIFRSAFWMDEERILEIGYPRNDVLVNRANDQEYLDEIRTHLNLPSDKKVIMYAPTWRDDEFVSKGKYLFELKIDLDNLYKELGDDYVILLRMHYLISNALDLSGYENFAIDVSNYNDVSELFLISDCLITDYSSVMFDYGILKRPQFFFAYDIDKYDKGLRGFYMNYMEDLPGPIYTEPYGLAKELKNLDKVQQQYQEKIDAFYDRFCSVDNGKASQYIGDLIHKDIKEQLEHHHHHH | soluble
2 | MSLNRYSVHPEQVKRFTTEELRSHFLMDSLFTENKLTMYYSHEDRVVIGGAAPGQSELKLDAGDFLKTDFFLERREIGIINVGQPGAVRVGDDEYVLQTKDFLYIGMGNQDVSFSSLNGEKAKFYFVSACAHKSYPTQKAALSELTPDRLGDDAASNVRSLYKVIHQDGIKSCQLMMGITMLDQNNNWNTMPAHVHDRRMEAYLYLDLEKDSKVFHFMGQPDETRHLVVGNEQAVLSPAWSIHSGAGTSNYSFVWAMAGENYTFTDMDLIPMDGLKEGHHHHHH | soluble
3 | MGSDKIHHHHHHMSQKIAYQRLEDILKKGSRIALYARYSTGKQDENAQIHSVRNFLSDYGCELLDDNIYIDPKTSAVKVPMDQRKDLQRLIKDSKENKFDCIVSYKNDRIARNTQEHNELRTEMQRLGMPVVLSSTREIYTVGEIVPLTIKDALTQIEPLLIAERTRDTFSSKIENGEWTGGQAPYGYIYDKETELFEITDKKVEVVQEIFRLFKLGYGLQQIANKLIADRRDIGQKWYKDKIKYIITNPFYAGHMTMNRYVKGKLQLKMETWTWSKKQESIPAIMSRDEWEYCFYLYVERRKSQTVRKSSTPFWLRDILHCNECQLPFKTKNQKTKSKRKNGEKVEYGKILYECRNCGLKLETEKIHDKFKEDVGRVLKKLLEKHRENLIQQTQLQIEKEHEEITNVQKELANKRIKLIENIDVLDKKISQLYKDITTGKGLKANHTEDVLGKEDEQDDWNSKLVEILLTGRSQKHNDLEEIKQQQQLLEDKQESLNIVMNALKNQYQDELLNFSFDPENEKSMRNFLLQFVKAVYVSRDMRLDYKIYENLISE | not soluble
4 | GMGILSGNPQDEPLHYGEVFSTWTYLSTNNGLINGYRSFINHTGDEDLKNLIDEAIQAMQDENHQLEELLRSNGVGLPPAPPDRPAARLDDIPVGARFNDPEISATISMDVAKGLVTCSQIIGQSIREDVALMFSQFHMAKVQFGGKMLKLNKNKGWLIPPPLHSDRPIKE | soluble
5 | GAMGIVGVGIDLVSIPDFAEQVDQPGTVFAETFTPGERRDASDKSSSAARHLAARWAAKEAVIKAWSGSRFAQRPVLPEDIHRDIEVVTDMWGRPRVRLTGAIAEYLADVTIHVSLTHEGDTAAAVAILEAP | soluble
6 | MAPTMNNGWMDSLSWIKSETPENSVVTCWWDNGHIYTWATRKMVTFDGGSQNTPRAYWVGHAFSTSDENLSVGILRMLATSGDSAYDDDSILIKKTGSIKDTVDILNKILPLTRTEAKASLVNNYDLTDAEAEEVLDLTHPKVTNPDYLITYNRMTSIASVWSMFGNWNFSLPASTENSDREMGLEHHHHHH | soluble
7 | MEQQNTLNDIKQTIVFNASIQKVWSVVSTAEGIASWFMPNDFVLEVGHEFHVQSPFGPSPCKVLEIDEPNHLSFSWDTDGWVVSFDLKDLGDNKTEFTLIHGGWKHPDEILPKANAKSSIIRDRMSGGWVAIVNEKLKKVVEG | soluble
8 | MMRKVALFGFSLLLLAGCSSSDSSLPLFSSLPKGVTLVEEVKAEPGKVMIPYSKYRLDNGLTVILSPDDSDPLVHVDVTYHVGSAREEIGKSGFAHFFEHMMFQGSKHVGDQQHFRLITEAGGSLNGTTNRDRTNYFETVPANQLEKMLWLEADRMGFLLDAVSQRKFEIQRDTVKNERAQNYDNRPYGLMWEKMGEALYPEGHPYSWQTIGYVSDLDRVDVNDLKAFFLRWYGPNNAVLTIGGDLDVKQTLAWVQKYFGSIPKGPDVVDAPKQPARLSEDRFITLEDRVQQPMLLIGWPTQYWGAEDQVALDALASALGSGNNSLLYQELVKTQKAVDAGAFQDCAELACTFYVYAMAPSGAKGKLAPLYQETLQVLEKFKQQGVSASRLEQIIGSEEASAVFALESVKGKVSQLAANQTFFDQPDRIESQLEKIRAVTPESVKQVFTRYLDGQPKVTLSVVAKGKTDFAVRPATFITPERQLPEYQKIGDEQLAYREVKDSFDRSQMPQVAQAVQPRLPKLYDVYFDNGVQLLGTQTRETPTVLIEIQLPAGERQVAMGKEGLANLTASLLQEGSQNRSAEAIQAQLDKLGSSIQVVAGAYSTSIVVSSLKKNLPETLQISQEMLLKPAFKQSDFARLQQQMLQGVVYQHQQPSWLASQATRQVLWGESLFARSGDGTQASISALTLKDVKQFYRQHYTPHGAQIAVVGDISAREIRQQLQFIADWKGEAAPLINPQVVPTLTKQKIYLVDKPGAPQSIIRMVRKGLPFDATGELYLTQLANFNLAGNFNSRINQNLREDKGYTYGAGSYFASNREIGAIVFNAPVRADVTVEAIQEMIKEMHHFSQAGMSEEEMKFLRLAVGQQDALMYETPAQKAQLVSSILTYSLDRDYLQQRNEIVKSVDRSTLNELAAKWFNPEDYQIIVVGDAKRLKPQLEKLGIPLEELEIIR | not soluble
9 | MGHHHHHHSHMTIYDQHMHTLYSFDSEAQLRDYLTQTKAPVVTTEHLEFDNPDDGGRDNLPDYARMKATQAALAEKFPNEFLLGIEAGYFAPADARFRQYLDNHDFDLTLLSFHHDGHYDYLDEQLITMPAKQQLEDYFERMLAGLKRFHDADVLAHFDYALRRFDITPDQLEAWGKPLLDQIFTIAVENDLALELNTKSMYRWGNAPLYDQAIAWYQAAGGHLFTIGSDAHEGPQYEANFADALAMLKRHGVKEIATYRQHQRTMVPIEPPVIDADNAY | soluble
10 | MAHHHHHHGPNTNPVAAWKALKEGNERFVAGRPQHPSQSVDHRAGLAAGQKPTAVIFGCADSRVAAEIIFDQGLGDMFVVRTAGHVIDSAVLGSIEYAVTVLNVPLIVVLGHDSCGAVNAALAAINDGTLPGGYVRDVVERVAPSVLLGRRDGLSRVDEFEQRHVHETVAILMARSSAISERIAGGSLAIVGVTYQLDDGRAVLRDHIGNIGEEV | soluble
11 | MRLIVVGIAEDITEKKQLETELQRLATTDVLTQSSNRRHFFECANREFEQARLQGSSLAFLLLDIDDFKVINDTYGHPEGDIVLQRIAESGRAALRRGDLFGRIGGEEFAAVFPGCTADMARQVAERLQREIQRQNFSHQGQTFTITVSQGLTGLLAEDESLDNLFARADSAMYEAKRQGKNRIITGLEHHHHHH | not soluble
12 | MGSDKIHHHHHHMKLFRPVDGRPNSGSSCILRSYYIIMAYMSMPIASQRQEKDMTEDIRSRIGLRPVINVSGTMTSLGASIVVPEAVEAMAAILPQFVEINDLQRKASAIIARLTGGEAGFVTASCSSGISLAVAGAITGNNLLAIEKLPDIAPEKNEVLVQMGHVVSYGAPVDQAIRLGGGKVVLVGQATSTHRYHMENAITEKTAAAVYVVSHHVVDYGLLHLSEFVEIAHAKGVPVIVDAASEYDLELFLATGADVVLYSGHKFLGGPTSGIVAGSKELVRHAFLQNMGIGRGMKVGKESIYGVMAALEAWEKRDHAGIRERETGYLNLWKKTLDGRPGVTALIEPDPTNNPLDRMRVIIDADEAHITAWDLTTALARGNPPIITRDHEVEHRYFYLDPCNLHPGQETIVASRLAEELDKARASNEMIATPFEDRSRHRFDGMLCWPD | not soluble
13 | MGSDKIHHHHHHMSFSMLRAALVLGSIGCAFSPQVNAKLNPLTVQIQPLAQSKLLLDLANAGDQLIAVGQRGHVLVYDKSWIQVPTPVLSQLTKVFFLDAKLGWAVGHDASIIHTQDGGQTWQLQMQSREIEKPFLDIRFFNANEGIAIGAYGLFYRTLDGGKTWEPEFHEELLFEEDVSYLAELKAEDEALYLSERAALLPHFNRIIRLNDSRLLLVGELGLVAESKDNGKHFTRTDFDYDGSMFNAIQVGEQIYVMGLRGHVFKTDLSLSDWQQVELPVKSSINGALVHKGELYIVGNAGVVLRLDGKGHAEIVARRQGENIVAVAESADKQLWFAGSNGLFQLK | not soluble
14 | MRDVLEVLEFPRVRALLAERAKTPLGRELALALAPLPREEAEKRHELTGEALSYPYALPEAGTLREAYGRALAGARLSGPELLKAAKALEEAMALKEELLPLKNALSQVAEGIGDHTPFLERVRKALDEEGAVKDEASPRLAQIRRELRPLRQQILDRLYALMDRHREAFQDRFVTLRRERYCVPVRAGMAQKVPGILLDESESGATLFIEPFSVVKLNNRLQALRLKEEEEVNRILRDLSERLAKDEGVPKTLEALGLLDLVQAQAALARDLGLSRPAFGERYELYRAFHPLIPDAVRNSFALDEKNRILLISGPNMGGKTALLKTLGLAVLMAQSGLFVAAEKALLAWPDRVYADIGDEQSLQENLSTFAGHLRRLREMLEEATSHSLVLIDELGSGTDPEEGAALSQAILEALLERGVKGMVTTHLSPLKAFAQGREGIQNASMRFDLEALRPTYELVLGVPGRSYALAIARRLALPEEVLKRAEALLPEGGRLEALLERLEAERLALEAERERLRRELSQVERLRKALAEREARFEEERAERLKALEEEVRAELLKVEAELKALKEKARTEGKRDALRELMALRERYAKKAPPPPPPPGLAPGVLVEVPSLGKRGRVVELRGEEVLVQVGPLKMSLKPQEVKPLPEAEPGKPLLAKPRREVKEVDLRGLTVAEALLEVDQALEEARALGLSTLRLLHGKGTGALRQAIREALRRDKRVESFADAPPGEGGHGVTVVALRP | soluble
15 | GAMGPVDEQWIEILRIQALCARYCLTINTQDGEGWAGCFTEDGAFEFDGWVIRGRPALREYADAHARVVRGRHLTTDLLYEVDGDVATGRSASVVTLATAAGYKILGSGEYQDRLIKQDGQWRIAYRRLRNDRLVSDPSVAVNVADADVAAVVGHLLAAARRLGTQMSDT | soluble
16 | SPMPAGRPRFLRSMALSSQTREWLEKGMPTEAEAGVPIRLQERAANTAPQARAEERHTQPADAAAPHARAERGRTLQAPASTSPLYTGAVPRANRIVQQLVEAGADLANIRTMFRNMLRGEEMILSRAEQNVFLQHFPDMLPCGIDRNSELAIALREALRRADSQQAARAPARTPPRSS | soluble
17 | MGSDKIHHHHHHMLNSIMEDKKELLKSLLRQIHEGRDVSELKEQFKDVLASISPLEIPLIEQELVKEGISTREIAKMCDIHVELFRESVEGAFSVEDIPEGHPLHTLFMENREIVKDAEMLALLANTLEREMKGEILEEMESVVAELIKVGHTHYNREEMLIFPYIERRGITAIPNVLWFKHDEIRAALRVLHRLLTTDTGERWEEHIKRVVEKAREVSSAMLDMVFRENNIFYPTLKVLLSEGEWRAIREQEEIIGYYKLKPAEWKSDAKPVHPYEIDTTITAEQLISLPEEVQNLLKGQLLKPDSYEVVREDDLRLDEGYLSQREINAIFKALPFDITFVDSNDRVRFFSGSDRIFARTPSVIGRRVHLCHPPRSVHIVDKILKAFRNGERDFAEFWINMGGRIIHIRYFAVRDEGEYLGTVEVVQDVTEIKRLEGEKRLLGWK | not soluble
